# Test results as given in paper PMC9280689, “Resistance to Powdery Mildew in Qingke Involves the Accumulation of Aromatic Phenolamides Through Jasmonate-Mediated Activation of Defense-Related Genes” (Frontiers in Plant Science, 2022).
# Tests used:
# Assay in all cases: purified protein
# [1] = substrate: CC(C)(COP(=O)(O)OP(=O)(O)OC[C@H]1O[C@@H](n2cnc3c(N)ncnc32)[C@H](O)[C@@H]1OP(=O)(O)O)[C@@H](O)C(=O)NCCC(=O)NCCSC(=O)/C=C/c1ccc(O)cc1; conditions: acyl donor, amine acceptor 100 μM (which amine not told), 10 mM MgCl2, Tris-HCl pH 7.4, 30 °C
# [2] = substrate: CC(C)(COP(=O)(O)OP(=O)(O)OC[C@H]1O[C@@H](n2cnc3c(N)ncnc32)[C@H](O)[C@@H]1OP(=O)(O)O)[C@@H](O)C(=O)NCCC(=O)NCCSC(=O)/C=C/c1ccc(O)c(O)c1; conditions: acyl donor, amine acceptor 100 μM (which amine not told), 10 mM MgCl2, Tris-HCl pH 7.4, 30 °C
# [3] = substrate: NCCCCN; conditions: acyl acceptor, feruloyl-CoA 50 μM as donor, 10 mM MgCl2, Tris-HCl pH 7.4, 30 °C
# [4] = substrate: COc1cc(/C=C/C(=O)SCCNC(=O)CCNC(=O)[C@H](O)C(C)(C)COP(=O)(O)OP(=O)(O)OC[C@H]2O[C@@H](n3cnc4c(N)ncnc43)[C@H](O)[C@@H]2OP(=O)(O)O)ccc1O; conditions: acyl donor, amine acceptor 100 μM (which amine not told), 10 mM MgCl2, Tris-HCl pH 7.4, 30 °C
protein,measurement,setting,value
HvACT (Hordeum vulgare) (protein) MKITVHSSKAVKPEYGACGLAPGCTADVVPLTVLDKANFDTYISVIYAFHAPAPPNAVLEAGLGRALVDYREWAGRLGVDASGGRAILLNDAGARFVEATADVALDSVMPLKPTSEVLSLHPSGDDGPEELMLIQVTRFACGSLVVGFTTQHIVSDGRSTGNFFVAWSQATRGAAIDPVPVHDRASFFHPREPLHVEYEHRGVEFKPCEKAHDVVCGADGDEDEVVVNKVHFSREFISKLKAHASAGAPRPCSTLQCVVAHLWRSMTMARGLDGGETTSVAIAVDGRARMSPQVPDGYTGNVILWARPTTTAGELVTRPVKHAVELISREVARINDGYFKSFIDFANSGAVEKERLVATADAADMVLSPNIEVDSWLRIPFYDMDFGGGRPFFFMPSYLPVEGLLILLPSFLGDGSVDAYVPLFSRDMNTFKNCCYSLD,Km,[1],104.9 ± 26.3 µM
same,kcat,[1],1.04 s⁻¹
same,kcat/Km,[1],10000 M⁻¹ s⁻¹
same,Km,[2],483.5 ± 63.2 µM
same,kcat,[2],0.175 s⁻¹
same,Km,[3],7.11 ± 2.14 µM
same,kcat,[3],2.51 s⁻¹
same,kcat/Km,[3],353000 M⁻¹ s⁻¹
same,Km,[4],161.3 ± 36.5 µM
same,kcat,[4],0.736 s⁻¹
same,kcat/Km,[4],5000 M⁻¹ s⁻¹
